Source: patent US10583180B2, “Method for treating adenosine deaminase severe combined imunodeficiency” (UCL Business PLC, priority 2015, dated 2020)
“Also recorded” adds a separate entry of the source.

Experiments:
ADA-deficient SCID = experiment: Phase I/II clinical trial of autologous CD34+ cells transduced with EFS-ADA lentiviral vector; format: in vivo, human; conditions: weight adjusted dose prior to reinfusion
Text: For the non-controlled, non-randomised Phase I/II clinical trial, to assess the safety and efficacy of autologous transplantation of CD34+ cells from ADA-deficient SCID infants following human ADA cDNA transfer by the EFS-ADA lentiviral vector, subjects received the infusion of their autologous, transduced cells following marrow cytoreduction with busulfan.
Patients were selected on the basis of inclusion and exclusion criteria detailed below. A back-up harvest was retained in case of failure of reconstitution following conditioning and re-infusion of transduced cells. For the transduction protocol, CD34+ cells were purified from G-CSF mobilised PBSCs recovered by leukapheresis (Plerixafor could be added to enhance mobilization), whenever possible or from bone marrow harvested under general anaesthetic. Back up cells of 3×10^6 CD34+/kg were stored from a single procedure if sufficient cell counts were available (and if not previously stored). The remaining CD34+ cells were taken forward for transduction. […] After purification, CD34+ cells were immediately transduced with the lentiviral vector, then evaluated for sterility, cell count, and viability, and immediately infused into patients. Several other tests for safety including testing for RCLs were performed on reinfused cells and results recorded retrospectively. […]

ADA−/− mice = experiment: Reconstitution of lethally irradiated ADA−/− mice with transduced lin-ve cells, analysed after 12 weeks; conditions: mouse, in vivo
Text: Early models of ADA deficient mice were limited by embryonic or peri-natal lethality as a result of severe hepatocellular and pulmonary damage. A two stage transgenic strategy in which ADA expression is restricted to trophoblasts rescues ADA null mice from pre- and peri-natal lethality and allows post-natal study of mice lacking ADA expression. In this model, many features of the human disease are accurately represented. Mice show abnormalities of thymic architecture with a significant block in thymocyte development at the CD4-CD8- double negative stage. […] In the periphery, there is a profound lymphopaenia with a severe T, B and NK cell deficiency that is seen in humans together with abnormalities in splenic lymphoid architecture and a paucity of splenic T cell populations. Murine ADA deficiency also manifests a number of non-immunological abnormalities including lung, renal, costochondral and neurological changes. Pulmonary problems are present in mice from ˜postnatal day 12 and are associated with significant lung inflammatory changes, eventually leading to the death of mice by postnatal day 22 from pulmonary insufficiency, unless early treatment is initiated. […] Mice were analysed after 12 weeks and compared with ADA−/− mice, mice that had undergone wild type transplant experiments (WT) or mice that had been treated with enzyme replacement therapy alone. […]

ADA-SCID patients = conditions: cited from earlier work

For `CS(=O)(=O)OCCCCOS(C)(=O)=O` [Busulfan], which toxicities of conditioning (ADA-deficient SCID) is on record?
The toxicities of conditioning was “No toxicities; also recorded: without any significant toxicity”.

B1: PEG-ADA: bovine form of ADA conjugated to polyethylene glycol; enzyme replacement therapy (conjugate, UniProt P56658 2-363, looked up)
Adenosine deaminase: AQTPAFNKPKVELHVHLDGAIKPETILYYGRKRGIALPADTPEELQNIIGMDKPLSLPEFLAKFDYYMPAIAGCREAVKRIAYEFVEMKAKDGVVYVEVRYSPHLLANSKVEPIPWNQAEGDLTPDEVVSLVNQGLQEGERDFGVKVRSILCCMRHQPSWSSEVVELCKKYREQTVVAIDLAGDETIEGSSLFPGHVKAYAEAVKSGVHRTVHAGEVGSANVVKEAVDTLKTERLGHGYHTLEDATLYNRLRQENMHFEVCPWSSYLTGAWKPDTEHPVVRFKNDQVNYSLNTDDPLIFKSTLDTDYQMTKNEMGFTEEEFKRLNINAAKSSFLPEDEKKELLDLLYKAYGMPSPASAEQCL
modifications: PEG conjugate (pegademase bovine)
notes: bovine form of ADA conjugated to polyethylene glycol; enzyme replacement therapy
With B1 as the molecule, how does the “T cells in the mononuclear fraction of peripheral blood” value (ADA−/− mice) read?
The value was “marked increase in T cell recovery”.

What about the “overall probability of surviving 20 years on ERT” value (ADA-SCID patients; estimated) of the same molecule?
The value was 78%.

And the “enzyme activity on a ml to ml basis relative to packed erythrocytes” value (ADA-SCID patients; in vivo)?
Its value is about 1800 times.

What about the “patients developing antibodies against bovine epitopes” value (ADA-SCID patients; in vivo) of the same molecule?
Its value is about 50%.

What about the “probability of surviving the next 12 years” value (ADA-SCID patients; patient alive 6 months after starting ERT) of the same molecule?
The value was “about 90%”.
